This note sets out measurements from the DeepSol protein solubility set.

A short description of the data set: soluble on expression in E. coli; label from the status in PepcDB or PDB records.
On to “MMMEIEDDEVPSPPSPHPAGTTIGGPNSKRYSDILSLDYCTFRIPYEELNIRFRNGQKDLDRAATGVAKAAELLQKKTAGSNEPVSRESLRRHFDLLIRQVQEARKTVERITQSEIEQLDKITTRADRIHEEFEVTRDSENPRNTEKLERQKFCRFIVWHMLRCGYIEPAKVLVKEMELEDLVDVDVFENMYAVQQALLDGNIQPCLAWCDRHHRKLRKLESRIELVARQQEAVTLIELGNIPEAVAYVKKYIAPIAKGKFTEDLKKTMGAIACTLEQSRLRNPELHAADRYQKCAALFIEEAHRIFEIHGNTALATLIQYGLATQKTPSCHNDEKTPLDKQKCIVCRPDVWPIAENLPYSHVANSRIFCSLSGKLCDDDKNIPFLFPSGHVIGSAAIERLKRDDNKLYDPIHKKLIDEEEALRLYFL”, for which the “soluble on expression in E. coli” value is listed as “not soluble”.

As to “MMNLRSIAMNKPDLVIFFDGQCPLCCNEMRALKTADHQARILLVDVHDTDTMSCYPSIDKQRALSILHGIDQQGQLLYGLDVTVLAWRLVNRHRWLFITRMPILKGISDRMYLLFAKHRMRLSRWFGQTQCQEGVCQKKLEHHHHHH”, the “soluble on expression in E. coli” value is reported as “soluble”.

As to “MMNNVKYLSFALILAFSACKSGSASSQEPSEKQDTVKIFNLPQIPVVLNTVEQRTDYMVKHYWDRFDFSDTTYINQAEVPEQAWVDYCDLLEHVPLPVAQTAMKETFNRAEKNRKMLHFFEELADKYLYDPNSPMRNEEFYIPVLEALIASPALDETAKIRPQARLELAQKNRLGTKALNFTYTLDSGVKGTLYQFPAEYTLLFINNPGCHACAEMIEGLKASPVINGFTAAKKLKVLSIYPDEELDEWKKHRNDFAKEWTNGYDKELVIKNKNLYDLRAIPTLYLLDKNKTVLLKDATLQKVEQYLAERG”, the “soluble on expression in E. coli” value is “not soluble”.

As for “MMNWKQLISAKRFGMEEFHEERQENRSEFQRDYDRLIFSAPFRRLQNKTQVFPLPGSIFVHNRLTHSLEVSCVGRSLGNDVAKAILERQPELESSFLPEIGSIVSAACLAHDLGNPPFGHSGERAISTFFSEGKGQRLQEKQPDGEQLSPMEWEDLTHFEGNANAFRILTHQFEGRRRGGFVLTYSTLASIVKYPFSSSLAGKKSKFGFFVSEEESYRKIATELGLIQLSEQPLKYARHPLVYLVEAADDICYQMMDIEDAHKLKIITTDETKELLMAFFSEDRQSRLRSTFQIVNDINEQIAYLRSSVIGLLVRECTRVFLEHEQEILAGTFEGALIKHIAEGPAAAYNHCAEISLKRIYRSQDVLDIELAGFRIISTLLELMVDAVTLPGKEKAYSELLTNRVSDQYNIKSPVLYERIQAVLDYISGMTDVFALDLYRKINGNSLPAV”, the “soluble on expression in E. coli” value was “not soluble”.

As to “MMQIDRNEKADAWLAHTQREQSGRLTIFLGAAPGVGKTYAMLTRAHELMQQGKQVVVGVVETHGRADTARLIAGLNVIPRRVVEYQDRKLEEMDLDQILHIKPEIVLVDELAHRNVPGSRHEYRWQDVNEILDAGINVYSTLNIQHLESLNDVVYQITGIRVTETVPDALLKRLKDIRLVDLPVPELLERMKHGKIYLDDMAPHALQGFFKPAHLTALRDLAIQTVAGQV”, the “soluble on expression in E. coli” value is “not soluble”.

Turning to “MMQTSRPTLQLLTASACYRDDPTALFHQLCGARPATLLLESAEVDNKQNLKSLLVIDSALRITALGQTVTLEALTRNGASLLPLLDASLPTEVDIQVRPNGRELTFPLINEVQDEDSRLQSLSVFDALRQLLTLVNTPLAEREALFLGGLFAYDLVAGFENLPPLRQDQRCPDFCFYLAETLLVLDHQHRSTRLQASLFTPDSSEYQRLATRLEQLSHQLQQAPHPIPATSVPEMALQCNQSDEEYCNVVSELQVAIREGEIFQVVPSRRFTLPCPSPLAAYQTLKDHNPSPYMFFMQDNDFSLFGASPESALKYDASNRQIEIYPIAGTRPRGRRPNGELDRDLDSRIELEMRTDHKEMAEHLMLVDLARNDLARICEPGSRYVADLTKVDRYSFVMHLVSRVIGTLRQDLDVLHAYQACMNMGTLSGAPKVRAMQLIASNEGSRRGSYGGAVGYFTAHGDLDTCIVIRSAYVEDGIATVQAGAGVVLDSVPQAEADETRNKARAVLRAIATAHHAKEIF”, the “soluble on expression in E. coli” value is “not soluble”.

On to “MMRLANGIVLDKDTTFGELKFSALRREVRIQNEDGSVSDEIKERTYDLKSKGQGRMIQVSIPASVPLKEFDYNARVELINPIADTVATATYQGADVDWYIKADDIVLTKDSLEHHHHHH”, for which the “soluble on expression in E. coli” value was “not soluble”.

Regarding “MMSAYNKLVRDRVPEKILMSGKTYTAQKLTGQAYIQALAKIGTEEIREFASMKEREHALDSLADALEVIISLARAEGASIEDVERLRKQKEIERGGFERGIYLLDVSEE”, the “soluble on expression in E. coli” value is “not soluble”.

With “MMSTPPQNTRPVFSVDGLWKVFGPKAERVPADPELAALSAAELSERTGCTAAVRDVSFDVHKGEVFVVMGLSGSGKSTLVRCLTRLIEPTAGTIAIDGEDVRAMDRTRLRELRRHRASMVFQHFGLLPHRTVLDNVAYGLEIQGLGKAERRERAAEVVAKVGLEGMEQRKPGQLSGGQQQRVGLARALAVDPEVLLFDEPFSALDPLIRRDMQEEVVRLHREEGRTMVFITHDLNEALRLGDRIALMRDGRVVQLGTPEEIVGSPADDYVREFVRDVPREQVMTVRTAMRAASAEEAGSGPAVAPDATVSEAIEAVARAGSPARVVDSGRCVGVVDSEALLDVVAGVGASGPAPAVTAVPPFEPSRDFGNAGAGAAEAAPGDVTGEEVALEHHHHHH”, the “soluble on expression in E. coli” value is listed as “soluble”.

Consider “MMTKTTTVPKNVYELAQERLRIVFNEFDNVYLSFSGGKDSGVLLSLCIDYIRRNNLKIKLGVFHMDYEIQYKMTIDYIARMLEDNKDILEVYRVCVPFRVATCTSMYQSFWRPWEDSKKDLWVRPLPENAMTKEDFPFYNTQMWDYEFQMRFASWLHEKKDAVRTCCLIGIRTQESFNRWRCIYLNRKYQMYHRYRWTSKVGNDIFNAYPIYDWKTTDVWTANGKFKWDYNKLYDYYYW”, for which the “soluble on expression in E. coli” value is listed as “not soluble”.

Take “MMTVAAEIRGSNPEKLLAPVLSAFWDEDESWTLDVYRRHEGYEGLRKALAMAPDDLIAYVKESGLRGRGGAGFPTGMKWQFIPQGDGKPHYLVVNADESEPGTCKDIPLLFANPHSLIEGIVIACYAIRSSHAFIYLRGEVVPVLRRLHEAVREAYAAGFLGENILGSGLDLTLTVHAGAGAYICGEETALLDSLEGRRGQPRLRPPFPAVAGLYACPTVVNNVESIASVPAILNKGKDWFRSMGSEKSPGFTLYSLSGHVAGPGQYEAPLGITLRQLLDMSGGMRPGHRLKFWTPGGSSTPMFTDEHLDVPLDYEGVGAAGSMLGTKALQCFDETTCVVRAVTRWTEFYAHESCGKCTPCREGTYWLVQLLRDIEAGKGQMSDLDKLNDIADNINGKSFCALGDGAASPIFSSLKYFREEYEEHITGRGCPFDPAKSTAWADRTEVKALEHHHHHH”: the “soluble on expression in E. coli” value was “not soluble”.

For the sequence “MMVEVRFFGPIKEENFFIKANDLKELRAILQEKEGLKEWLGVCAIALNDHLIDNLNTPLKDGDVISLLPPVCGG”, the “soluble on expression in E. coli” value was “not soluble”.

Take “MMVMTDKFNYEELGLKVGLEIHRQLDTKKLFSPVPSELSDKVEFTFQRRLRPTMSELGEIDPAALEEFKKGRVYVYEGNYELTDLVYMDEEPPRGPDREALEVALQIAYLLNAKPVDEVYYMRKIVIDGSNVSGFQRTAIIATDGKVETPWGAVGIPTICLEEDAARIIERKDKEVIYRLDRLGIPLIEISTTPDIHHPEQAKVVAKFIGDALRATKKVKRGLGTIRQDLNVSIKGGARIEIKGVQELDMIPIIIEREVERQLNLLKIRDELRKRGVKPKDIKEEFYDVTDIFENTKSKIIARVIKKGGKVLAIKLPKFRGLIGREIQPGRRLGTEFADRAKKYVPGIFHIDELPNYGISQEEVNKVIERLNLSEEDAFVLVAAEEEKAKNALREVIKRAREAIEGVPEETRRALPDGNTEYMRPLPGKARMYPETDIPPLRIPDDLKKKIKENLPELPQAKVERYVKEYKLDRSLAQTLVDDERDELFEELVSMGVKPSLAASILVVVLKGLRKEVPIENVTDEHIREAFQLYLEGKIAKEAFEEIFKELARNPSKSAREVAEEKGLTLLSEEEVTRIIEEVIQQNIEVVKAKGMGAMGLIMGRVMAKVRGKADGKLVSQIVRRKLQEISGG”: the “soluble on expression in E. coli” value is reported as “soluble”.
